# In patent US20100040635A1 (SEA LANE BIOTECHNOLOGIES, published 2010):
# Target: H3 hemagglutinin of influenza A/Hong Kong/68 (influenza A virus H3 A/Hong Kong/68)
# Assay: cell-based or functional assay
row,Binder,Minimum inhibitory concentrations required to neutralize virus [µg/mL]
1,"Antibody 1 (antibody, V domains shown) VH: QVQLVQSGAEVKKPGSSVRVSCKTSGGTFSSYAVTWVRQAPGQGLEWMGGIIGMFGTTNYAQKFQGRLTITADEMTSTAYMELSSLRSEDTAVYYCARGSYYYETTLDYWGRGTL VL: ETTLTQSPGTLSLSPGERATLSCRVSQSVSSNYLAWYQQKPGQAPRLLIYGASSRATGIPDRFSGSGSGTDFTLTISRLEPEDFAVYYCQQYGTSPRAFGHGTKVEIKR",> 333
2,"Antibody 3 (antibody, V domains shown) V domain 1: EVQLVQSGAEVKKPGSSVKVSCKTSGGTFSSYAVTWVRQAPGQGLEWMGAIIGMFGTTNYAQKFQGRVTITADELTSTAYMELSSLRSDDTAVYYCARGSYYYESSLDYWGKGTL V domain 2: QSVLTQPPSVSGAPGQRVTISCGGSRSNIGAGYDVHWYQQFPGTAPKVVIYGNNNRPSGVPDRFSGSKSGTSASLAITGLQAEDEANYYCQSYDTNLGGSIFGGGTQVTVL",> 333
3,"Antibody 2 (antibody, V domains shown) VH: QVQLVQSGAEVKKPGSSVKVSCKTSGGTFSSYAVTWVRQAPGQGLEWMGGIIGMFGTTNYAQKFQGRVTITADELTSTAYMELSSLRSEDTAVYYCARGSYYYESSLDYWGRGTL VL: ETTLTQSPATLSVSPGERATLSCRASQSVSRNLAWYQQKPGQAPRLLIYGASSRATGIPDRFSGSGSGTDFTLTISRLEPEDFAVYYCQQYGSSSITFGQGTRLEIKR",> 333
4,"Antibody 4 (antibody, V domains shown) VH: QVQLQESGPGLVKPSETLSLTCTVSGYSFDSGYYWGWLRQPPGKGLEWIGSIYHSRNTYYNPSLKSRVTISVDTSKNQFSLQLSSVTAADTAVYYCARGTWYSSNLRYWFDPWGKGTL VL: NFMLTQPHSVSESPGKTVTISCTGSGGNIARNYVQWYQQRPGSAPVTVILEDDKRPSGIPDRFSGSIDRSSNSASLTISGLRTEDEALYYCQSYDDSDLVVFGGGTKLT",> 333
